Assay results as given in patent US20130266517A1 (published 2013).

Assays:
[1] = molecular target: T1, alpha-synuclein (natural human wildtype alpha-synuclein) (human, UniProt P37840 1-140); assay: Biacore (SPR) full kinetic analysis
Description: Biacore full binding kinetic analysis of antibodies were carried out using Biacore. Detailed binding kinetic parameters (association rate, ka, dissociation rate, kd, and affinity constant, KD) were determined for murine 1H7 (FIG. 3A), chimeric 1H7 (FIG. 3B) and humanized 1H7 (Hu1H7VHv3-Hu1H7VLv3, Hu1H7VHv3-Hu1H7VLv1, Hu1H7VHv4-Hu1H7VLv1) antibodies (FIG. 3C).

[2] = molecular target: T1, alpha-synuclein (natural human wildtype …); assay: BLI, ForteBio Octet QK; apparent KD
Description: (§1) Binding kinetic of humanized 1H7 antibodies were also measured by bio-layer interferometry (BLI) using a ForteBio Octet QK instrument (ForteBio, Menlo Park, Calif.). Detailed binding kinetic parameters (association rate, apparent ka, dissociation rate, apparent kd, and affinity constant, apparent KD) were determined for chimeric 1H7 and various humanized 1H7 antibodies (Tables 6-7, FIGS. 4A-C). Apparent ka, apparent kd and apparent KD are binding kinetic parameters obtained using ForteBio assay formats. These parameters differ from ka, kd and KD measured using Biocore assays due to, e.g., avidity effects associated with ForteBio assay formats.

[3] = molecular target: T1, alpha-synuclein (natural human wildtype …); assay: BLI, ForteBio Octet QK; apparent ka
Description: as §1

[4] = molecular target: T1, alpha-synuclein (natural human wildtype …); assay: BLI, ForteBio Octet QK; apparent kd
Description: as §1

| Kd [1] | koff [1] | kon [1] | Kd [2] | kon [3] | koff [4] | Binder |
| --- | --- | --- | --- | --- | --- | --- |
| 9.5 nM | 0.0096 s⁻¹ | 1e+06 M⁻¹ s⁻¹ | – | – | – | Murine 1H7 (antibody, mouse IgG1, V domains shown, Mouse IgG1; also called m1H7; mouse 1H7) VH: VQLQQSGPELVKPGTSVKISCKASGYSFTSYYIHWVKQSPGQGLEWIGWIYPGSGNTKYSEKFKGKATLTADTSSSTAYMQLSSLTSEDSAVYFCARDGCYGFAYWGQGTLVTVS VL: DIVLTQSPASLAVSLGQRATISCKASQSVDYDGDSYMNWYQQKPGQPPKFLICAASNLESGIPARFSGSGSGTDFTLNIHPVEEEDAATYYCQQSNEDPFTFGSGTKLEIK |
| – | – | – | 0.0072 nM | 580000 M⁻¹ s⁻¹ | 4.2e-06 s⁻¹ | Humanized 1H7 H2L1 (Hu1H7VHv2-Hu1H7VLv1) (antibody, V domains shown) VH: QVQLVQSGAEVKKPGASVKVSCKASGYSFTSYYIHWVRQAPGQGLEWIGWIYPGSGNTKYSEKFKGRATLTADTSTSTAYMELRSLRSDDTAVYFCARDGCYGFAYWGQGTLVTVSS VL: DIQLTQSPSSLSASVGDRVTITCKASQSVDYDGDSYMNWYQQKPGKAPKFLICAASNLESGVPSRFSGSGSGTDFTLTISSLQPEDAATYYCQQSNEDPFTFGQGTKLEIK |
| – | – | – | 4.4 nM | 520000 M⁻¹ s⁻¹ | 0.0023 s⁻¹ | Humanized 1H7 H4L4 (Hu1H7VHv4-Hu1H7VLv4) (antibody, V domains shown) VH: QVQLVQSGAEVKKPGASVKVSCKASGYSFTSYYIHWVRQAPGQGLEWIGWIYPGSGNTKYSEKFKGRATLTADTSTSTAYMELRSLRSDDTAVYFCARDGSYGFAYWGQGTLVTVSS VL: DIQLTQSPSSLSASVGDRVTITCKASQSVDYDGDSYMNWYQQKPGKAPKFLIYAASNLESGVPSRFSGSGSGTDFTLTISSLQPEDFATYYCQQSNEDPFTFGQGTKLEIK |
| 64 nM | 0.056 s⁻¹ | 880000 M⁻¹ s⁻¹ | – | – | – | Humanized 1H7 H5L1 (Hu1H7VHv5-Hu1H7VLv1) (antibody, V domains shown) VH: QVQLVQSGAEVKKPGASVKVSCKASGYTFTSYYIHWVRQAPGQGLEWMGWIYPGSGNTKYSEKFKGRATMTADTSTSTAYMELRSLRSDDTAVYYCARDGSYGFAYWGQGTLVTVSS VL: DIQLTQSPSSLSASVGDRVTITCKASQSVDYDGDSYMNWYQQKPGKAPKFLICAASNLESGVPSRFSGSGSGTDFTLTISSLQPEDAATYYCQQSNEDPFTFGQGTKLEIK |
| – | – | – | 2.6 nM | 760000 M⁻¹ s⁻¹ | 0.002 s⁻¹ | Humanized 1H7 H5L3 (Hu1H7VHv5-Hu1H7VLv3) (antibody, V domains shown) VH: QVQLVQSGAEVKKPGASVKVSCKASGYTFTSYYIHWVRQAPGQGLEWMGWIYPGSGNTKYSEKFKGRATMTADTSTSTAYMELRSLRSDDTAVYYCARDGSYGFAYWGQGTLVTVSS VL: DIQLTQSPSSLSASVGDRVTITCKASQSVDYDGDSYMNWYQQKPGKAPKFLICAASNLESGVPSRFSGSGSGTDFTLTISSLQPEDFATYYCQQSNEDPFTFGQGTKLEIK |
| – | – | – | 4 nM | 520000 M⁻¹ s⁻¹ | 0.0021 s⁻¹ | Humanized 1H7 H5L2 (Hu1H7VHv5-Hu1H7VLv2) (antibody, V domains shown) VH: QVQLVQSGAEVKKPGASVKVSCKASGYTFTSYYIHWVRQAPGQGLEWMGWIYPGSGNTKYSEKFKGRATMTADTSTSTAYMELRSLRSDDTAVYYCARDGSYGFAYWGQGTLVTVSS VL: DIQLTQSPSSLSASVGDRVTITCKASQSVDYDGDSYMNWYQQKPGKAPKFLIYAASNLESGVPSRFSGSGSGTDFTLTISSLQPEDAATYYCQQSNEDPFTFGQGTKLEIK |
| – | – | – | 5.8 nM | 1.6e+06 M⁻¹ s⁻¹ | 0.009 s⁻¹ | Humanized 1H7 H1L2 (Hu1H7VHv1-Hu1H7VLv2) (antibody, V domains shown) VH: QVQLVQSGAELKKPGASVKVSCKASGYSFTSYYIHWVKQAPGQGLEWIGWIYPGSGNTKYSEKFKGRATLTADTSTSTAYMELRSLRSDDTAVYFCARDGCYGFAYWGQGTLVTVSS VL: DIQLTQSPSSLSASVGDRVTITCKASQSVDYDGDSYMNWYQQKPGKAPKFLIYAASNLESGVPSRFSGSGSGTDFTLTISSLQPEDAATYYCQQSNEDPFTFGQGTKLEIK |
| 33.9 nM | 0.033 s⁻¹ | 970000 M⁻¹ s⁻¹ | – | – | – | Humanized 1H7 H4L1 (Hu1H7VHv4-Hu1H7VLv1) (antibody, V domains shown) VH: QVQLVQSGAEVKKPGASVKVSCKASGYSFTSYYIHWVRQAPGQGLEWIGWIYPGSGNTKYSEKFKGRATLTADTSTSTAYMELRSLRSDDTAVYFCARDGSYGFAYWGQGTLVTVSS VL: DIQLTQSPSSLSASVGDRVTITCKASQSVDYDGDSYMNWYQQKPGKAPKFLICAASNLESGVPSRFSGSGSGTDFTLTISSLQPEDAATYYCQQSNEDPFTFGQGTKLEIK |
| – | – | – | 1.7 nM | 1.2e+06 M⁻¹ s⁻¹ | 0.0021 s⁻¹ | Humanized 1H7 H4L2 (Hu1H7VHv4-Hu1H7VLv2) (antibody, V domains shown) VH: QVQLVQSGAEVKKPGASVKVSCKASGYSFTSYYIHWVRQAPGQGLEWIGWIYPGSGNTKYSEKFKGRATLTADTSTSTAYMELRSLRSDDTAVYFCARDGSYGFAYWGQGTLVTVSS VL: DIQLTQSPSSLSASVGDRVTITCKASQSVDYDGDSYMNWYQQKPGKAPKFLIYAASNLESGVPSRFSGSGSGTDFTLTISSLQPEDAATYYCQQSNEDPFTFGQGTKLEIK |
| 9 nM | 0.011 s⁻¹ | 1.3e+06 M⁻¹ s⁻¹ | – | – | – | Humanized 1H7 H3L3 (Hu1H7VHv3-Hu1H7VLv3) (antibody, V domains shown) VH: QVQLVQSGAEVKKPGASVKVSCKASGYTFTSYYIHWVRQAPGQGLEWMGWIYPGSGNTKYSEKFKGRATMTADTSTSTAYMELRSLRSDDTAVYYCARDGCYGFAYWGQGTLVTVSS VL: DIQLTQSPSSLSASVGDRVTITCKASQSVDYDGDSYMNWYQQKPGKAPKFLICAASNLESGVPSRFSGSGSGTDFTLTISSLQPEDFATYYCQQSNEDPFTFGQGTKLEIK |
| – | – | – | 2.7 nM | 740000 M⁻¹ s⁻¹ | 0.002 s⁻¹ | Humanized 1H7 H4L3 (Hu1H7VHv4-Hu1H7VLv3) (antibody, V domains shown) VH: QVQLVQSGAEVKKPGASVKVSCKASGYSFTSYYIHWVRQAPGQGLEWIGWIYPGSGNTKYSEKFKGRATLTADTSTSTAYMELRSLRSDDTAVYFCARDGSYGFAYWGQGTLVTVSS VL: DIQLTQSPSSLSASVGDRVTITCKASQSVDYDGDSYMNWYQQKPGKAPKFLICAASNLESGVPSRFSGSGSGTDFTLTISSLQPEDFATYYCQQSNEDPFTFGQGTKLEIK |
| 12 nM | 0.013 s⁻¹ | 1.1e+06 M⁻¹ s⁻¹ | – | – | – | Humanized 1H7 H3L1 (Hu1H7VHv3-Hu1H7VLv1) (antibody, V domains shown) VH: QVQLVQSGAEVKKPGASVKVSCKASGYTFTSYYIHWVRQAPGQGLEWMGWIYPGSGNTKYSEKFKGRATMTADTSTSTAYMELRSLRSDDTAVYYCARDGCYGFAYWGQGTLVTVSS VL: DIQLTQSPSSLSASVGDRVTITCKASQSVDYDGDSYMNWYQQKPGKAPKFLICAASNLESGVPSRFSGSGSGTDFTLTISSLQPEDAATYYCQQSNEDPFTFGQGTKLEIK |
| – | – | – | 2 nM | 2.3e+06 M⁻¹ s⁻¹ | 0.0046 s⁻¹ | Humanized 1H7 H2L2 (Hu1H7VHv2-Hu1H7VLv2) (antibody, V domains shown) VH: QVQLVQSGAEVKKPGASVKVSCKASGYSFTSYYIHWVRQAPGQGLEWIGWIYPGSGNTKYSEKFKGRATLTADTSTSTAYMELRSLRSDDTAVYFCARDGCYGFAYWGQGTLVTVSS VL: DIQLTQSPSSLSASVGDRVTITCKASQSVDYDGDSYMNWYQQKPGKAPKFLIYAASNLESGVPSRFSGSGSGTDFTLTISSLQPEDAATYYCQQSNEDPFTFGQGTKLEIK |
| – | – | – | 2.9 nM | 220000 M⁻¹ s⁻¹ | 0.00064 s⁻¹ | Humanized 1H7 H1L3 (Hu1H7VHv1-Hu1H7VLv3) (antibody, V domains shown) VH: QVQLVQSGAELKKPGASVKVSCKASGYSFTSYYIHWVKQAPGQGLEWIGWIYPGSGNTKYSEKFKGRATLTADTSTSTAYMELRSLRSDDTAVYFCARDGCYGFAYWGQGTLVTVSS VL: DIQLTQSPSSLSASVGDRVTITCKASQSVDYDGDSYMNWYQQKPGKAPKFLICAASNLESGVPSRFSGSGSGTDFTLTISSLQPEDFATYYCQQSNEDPFTFGQGTKLEIK |
| – | – | – | 4.8 nM | 250000 M⁻¹ s⁻¹ | 0.0012 s⁻¹ | Humanized 1H7 H1L1 (Hu1H7VHv1-Hu1H7VLv1) (antibody, V domains shown) VH: QVQLVQSGAELKKPGASVKVSCKASGYSFTSYYIHWVKQAPGQGLEWIGWIYPGSGNTKYSEKFKGRATLTADTSTSTAYMELRSLRSDDTAVYFCARDGCYGFAYWGQGTLVTVSS VL: DIQLTQSPSSLSASVGDRVTITCKASQSVDYDGDSYMNWYQQKPGKAPKFLICAASNLESGVPSRFSGSGSGTDFTLTISSLQPEDAATYYCQQSNEDPFTFGQGTKLEIK |
| – | – | – | 1.2 nM | 1.6e+06 M⁻¹ s⁻¹ | 0.0019 s⁻¹ | Humanized 1H7 H5L4 (Hu1H7VHv5-Hu1H7VLv4) (antibody, V domains shown) VH: QVQLVQSGAEVKKPGASVKVSCKASGYTFTSYYIHWVRQAPGQGLEWMGWIYPGSGNTKYSEKFKGRATMTADTSTSTAYMELRSLRSDDTAVYYCARDGSYGFAYWGQGTLVTVSS VL: DIQLTQSPSSLSASVGDRVTITCKASQSVDYDGDSYMNWYQQKPGKAPKFLIYAASNLESGVPSRFSGSGSGTDFTLTISSLQPEDFATYYCQQSNEDPFTFGQGTKLEIK |
| – | – | – | 3.3 nM | 1.8e+06 M⁻¹ s⁻¹ | 0.0058 s⁻¹ | Humanized 1H7 H1L4 (Hu1H7VHv1-Hu1H7VLv4) (antibody, V domains shown) VH: QVQLVQSGAELKKPGASVKVSCKASGYSFTSYYIHWVKQAPGQGLEWIGWIYPGSGNTKYSEKFKGRATLTADTSTSTAYMELRSLRSDDTAVYFCARDGCYGFAYWGQGTLVTVSS VL: DIQLTQSPSSLSASVGDRVTITCKASQSVDYDGDSYMNWYQQKPGKAPKFLIYAASNLESGVPSRFSGSGSGTDFTLTISSLQPEDFATYYCQQSNEDPFTFGQGTKLEIK |
